Source: the DeepSol protein solubility set

Test: soluble on expression in E. coli; label from the status in PepcDB or PDB records

Sequence	soluble on expression in E. coli
MGSDKIHHHHHHMQRENFGPAWLNENNAVMYFIVGTDIDVDIDDEIKTYEDIIQVDINENYHNITYKAIFWINEINKCRHGPKLLLKIDDDVHIDMIGLQFLIKRYSVMDDFMACRVISNGQVVRNNTSKWYLSKKDYKFPNLGTYCQGMVYFISGNLLPILHGNIEKSQFLWMDDWYVTRSLVGDYKISYYSLEQHSISPNTVREVYSSLMAIKTRKWRTIFAHFRPPQKFPMYRRRKIWANITEINNSCNILRKARINFVSAY	not soluble
MTLEWEEFLDPYIQAVGELKIKLRGIRKQYRKQNKHSPIEFVTGRVKPIESIKEKMARRGITYATLEHDLQDIAGLRVMVQFVDDVKEVVDILHKRQDMRIIQERDYITHRKASGYRSYHVVVEYTVDTINGAKTILAEIQIRTLAMNFWATIEHSLNYKYQGDFPDEIKKRLEITARIAHQLDEEMGEIRDDIQEAQALFDPLSRKLNDGVGNSDDTDEEYR	soluble
GHMPFEWVKQYDYEDIIYETYNGIAKITINRPEVHNAFRPKTVNEMIDAFTKARDDSNIGVIILTGAGGKAFCSGGDQKVRGHGGYVGEDEIPRLNVLDLQRLIRVIPKPVIAMVAGYAIGGGHVLHVVCDLTIAADNAIFGQTGPKVGSFDGGYGAGYLARIVGHKKAREIWYLCRQYTAQEALEMGLVNKVVPLEQLEEETVKWAQEILEKSPTAIRFLKAAFNADSDGLAGIQQLAGDATLLFYTTEEAKEGMRAFKEKRKPDFSQFPRFP	soluble
MEVQFKNTRKGYYLNSERIELHKGDVVAVEANPGHDIGTVTLTGKLVKLQMRKHRYNTNNGEPFKIYRIAKQGDLDKYCEAKAREYDTMIQSRQISAELNLDMKIGDVEYQGDGNKAIFYYIADERVDFRQLIRVLAETFHIRVEMKQIGARQEAGRIGGIGPCGRQLCCSAWKMNFVSVNTSAARYQDLALNPQKLTGLCAKLKCCLNYEVDAYVEARKKMPSPEIVLETKESAYHYFKADVFRREVSYSTVPNAPVNLTTISARRAFEVISQNKQGFKPVSLEYDDKKQSSGHELSDILTDNSLTRFDDALSRRRRRNGNGNRDFSDREKAGEPHRTPDSIQPTPRVRSSSRMPSREKSPRPEGGDRRENMRERSRGDARFARPYTNEGGSERMEGARRVVGSGRRPPRQSTPRQEDRQGERKEE	not soluble
MVTKEQVVEALEGIVDPFLHKTLKETSAIKEVTVKPEKEHVSVKIAIVKTGTAEQMQLQSGIVKLVKELGAATVGLRFAEFTEEELAQFAPEQEEEQSESLLSPNSKTTFLAVASGKGGVGKSTVSVNLAVALARLGKKVGIIDADIYGFSVPDMMGIEKRPIVRGDKIIPVERLGVKVISMGFFVEDNAPVIWRGPMLGKMLNHFFTEVEWGDLDYLVLDLPPGTGDVALDVHSMLPSCKEIIVTTPHPTAAFVAARAGAMALRTEHSILGVVENMAYFESKVTGEKEYVFGKGGGDKLATELQTNVLGRIPLQQPDWNKEDFAPSVYEDTHTTGIIYSKIAETVIDKTAVTQK	not soluble
MNLHVKTLSLMTWRSRFLEESFWSLEETAALAKQLPLKSPSENIFLHIVDLSDPKQIWKFVENFKQEHKLHVLINNAGCMVNKRELTEDGLEKNFAANTLGVYILTTGLIPVLEKEHDPRVITVSSGGMLVQKLNTNDLQSERTPFDGTMVYAQNKRQQVVLTERWAQGHPAIHFSSMHPGWADTPDRNEQELRKVVGEAQTASPLPRFLEIMMHEGKCQPQGHSSNDLEACWSSGGGEQNSLPDWPHQLHDLRQLTWALCSSFLLYKQGN	not soluble
TEVELAYLVSESQLIGITGSNGKTTTTTMIAEVLNAGGQRGLLAGNIGFPASEVVQAANDKDTLVMELSSFQLMGVKEFRPHIAVITNLMPTHLDYHGSFEDYVAAKWNIQNQMSSSDFLVLNFNQGISKELAKTTKATIVPFSTTEKVDGAYVQDKQLFYKGENIMSVDDIGVPGSHNVENALATIAVAKLAGISNQVIRETLSNFGG	not soluble
MLEQPIGVIDSGVGGLTVAKEIMRQLPKENIIYVGDTKRCPYGPRPEEEVLQYTWELTNYLLENHHIKMLVIACNTATAIALDDIQRSVGIPVVGVIQPGARAAIKVTDNQHIGVIGTENTIKSNAYEEALLALNPDLKVENLACPLLVPFVESGKFLDQTADEIVKTSLYPLKDTSIDSLILGCTHYPILKEAIQRYMGEHVNIISSGDETAREVSTILSYKGLLNQSPIAPDHQFLTTGARDQFAKIADDWFGHEVGHVECISLQEPIKR	soluble
